# Laboratory results published in PMC2752837.
# Legend:
# Assay in all cases: purified protein
# Settings in all cases: 50 mM CHES pH 9.5, 10 mM DTT, 37 °C
# N=C(N)NOCC[C@H](N)C(=O)O = tested on: N=C(N)NOCC[C@H](N)C(=O)O
# [1] = tested on: N=C(N)NCCC[C@H](N)C(=O)NO
# [2] = tested on: CCOC(=O)[C@H](CCCNC(=N)N)NC(=O)c1ccccc1
# [3] = tested on: N=C(N)NCCCC[C@H](N)C(=O)O
# [4] = tested on: N=C(NO)NCCC[C@H](N)C(=O)O
substance,measurement,setting,value
"truncated PAD (peptidylarginine deiminase, 43-amino acid N-terminal deletion) (Porphyromonas gingivalis W83)",Km,N=C(N)NOCC[C@H](N)C(=O)O,(6 ± 1)×10^3 µM
same,kcat,N=C(N)NOCC[C@H](N)C(=O)O,0.0052 s⁻¹
same,kcat/Km,N=C(N)NOCC[C@H](N)C(=O)O,0.93 M⁻¹ s⁻¹
same,Km,[1],(6.9 ± 0.5)×10^3 µM
same,kcat,[1],0.15 s⁻¹
same,Km,[2],(18 ± 1)×10^3 µM
same,kcat/Km,[2],0.99 M⁻¹ s⁻¹
same,Km,[3],(4.7 ± 0.8)×10^3 µM
same,kcat,[3],0.11 s⁻¹
same,kcat/Km,[3],24 M⁻¹ s⁻¹
same,Km,[4],(1.5 ± 0.5)×10^3 µM
same,kcat,[4],0.0046 s⁻¹
same,kcat/Km,[4],3 M⁻¹ s⁻¹
